Experimental findings from article PMC10761746 (Scientific Reports, 2024) are described below.

This assay concerns the target T1, His6-RpoA (purified) (UniProt P0A7Z7 1-329).
T1 construct: also called RNA polymerase alpha subunit
Nature of the assay: pull-down. To be noted: both partners purified.

T1 sequence (P0A7Z7 whole entry): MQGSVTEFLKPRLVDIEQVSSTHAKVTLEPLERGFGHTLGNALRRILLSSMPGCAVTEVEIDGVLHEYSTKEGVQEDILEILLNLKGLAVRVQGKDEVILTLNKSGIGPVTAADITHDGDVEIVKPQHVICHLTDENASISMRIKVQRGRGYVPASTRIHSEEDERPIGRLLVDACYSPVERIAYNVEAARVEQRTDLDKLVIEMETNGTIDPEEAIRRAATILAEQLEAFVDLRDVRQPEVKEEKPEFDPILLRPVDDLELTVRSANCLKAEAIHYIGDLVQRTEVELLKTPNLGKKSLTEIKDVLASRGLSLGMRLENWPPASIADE

B1: MBP-InvF (InvF fused to the maltose-binding protein) (natural protein)
chain: MSFSESRHNENCLIQEGALLFCEQAVVAPVSGDLVFRPLKIEVLSKLLAFIDGAGLVDTTYAESDKWVLLSPEFRAIWQDRKRCEYWFLQQIITPSPAFNKVLALLRKSESYWLVGYLLAQSTSGNTMRMLGEDYGVSYTHFRRLCSRALGGKAKSELRNWRMAQSLLNSVEGHENITQLAVNHGYSSPSHFSSEIKELIGVSPRKLSNIIQLADK
notes: also called Transcriptional regulator InvF
For the molecule B1, the binding result is given as “binds”.
